From publication PMC8441438, “Dynamic regulation of mitotic ubiquitin ligase APC/C by coordinated Plx1 kinase and PP2A phosphatase action on a flexible Apc1 loop” (The EMBO Journal, 2021) come the findings set out here.

Non-standard residues stand in square brackets, D forms with d. pT = C[C@@H](OP(=O)(O)O)[C@H](N)C(=O)O; pS = N[C@@H](COP(=O)(O)O)C(=O)O

First the molecules themselves.
B1: Plx1-PBD WT (polo-box domain of Plx1) (domain or fragment, Xenopus laevis, UniProt P70032 362-598, looked up)
chain: EPADCYLSEMLQQLTCLNAVKPSERALIRQEEAEDPASIPIFWISKWVDYSDKYGLGYQLCDNSVGVLFNDSTRLIMYNDGDSLQYIERNNTESYLNVRSYPTTLTKKITLLKYFRNYMSEHLLKAGANTTPREGDELARLPFLRTWFRTRSAIILHLSNGTVQINFFQDHTKIILCPLMAAVSYIDEKREFRTYKLSLIQEFGCCKELASRLRYARTMVEKLQSSKSAVAHVKASA
notes: Plx1, Xenopus laevis, polo-box domain, amino acids 362-598; 3xFlag is PreScission-cleavable, His6 TEV-cleavable; cleavage is not reported; also called WT Plx1-PBD; source: E. coli BL21-CodonPlus (DE3), purified (Ni-NTA agarose)
B3: MBP-fused Apc1-loop^500 WT fragment (domain or fragment, Xenopus tropicalis, UniProt Q08D52 515-584, looked up)
chain: GLAAPSLGMSNPMPRPSTPLESISTPAKPLNKHLAPMDEAGMLSPVPELRDSTRLHESTYLDDCTFHQFG
notes: Apc1 (APC/C subunit 1), Xenopus tropicalis, loop^500, residues 515-584; Added unphosphorylated; becomes phosphorylated at CDK sites T532, T539 and S558 when incubated in anaphase egg extracts; MBP is PreScission-cleavable and His6 TEV-cleavable; also called MBP-Apc1-loop^500; CDK^- Apc1-loop^500; source: recombinant, purified as described previously (Fujimitsu & Yamano, 2020); not shown: MBP, …

What all share (settings): both partners purified
Assay [1] deals with B3. Description: pull-down; MBP-fused Apc1-loop^500 on amylose beads incubated in anaphase extracts at 23°C for 1 h, then purified Plx1-PBD (10 µg or indicated amounts) added to the extract for 15 min; bound proteins by SDS-PAGE and Coomassie staining.
The target of assay [2] is B1. Description: pull-down; purified proteins only: MBP-fused Apc1-loop^500 incubated with or without purified Cdk2/cyclin A (30°C, 2 h, 1 mM ATP), bound to amylose beads, incubated with Plx1-PBD at 4°C (on ice) for 10 min in XB^CSF with 0.01% NP-40 without EGTA; Coomassie staining.
The target of assay [3] is B1. Description: pull-down; MBP-fused Apc1-loop^500 on amylose beads incubated in anaphase extracts at 23°C for 1 h, then purified Plx1-PBD (10 µg or indicated amounts) added to the extract for 15 min; bound proteins by SDS-PAGE and Coomassie staining.
For assay [4], the target named is B1. Description: pull-down; dissociation assay: Plx1-PBD/MBP-Apc1-loop^500 complexes formed in anaphase extracts, isolated on amylose beads and incubated with (78 nM) or without purified PP2A-B56γ at 23°C for 30 or 60 min; PBD left on the beads by Coomassie staining.

Consider B1, for which, in assay [1], the “stoichiometry N” value is > 1 Plx1-PBD per Apc1-loop^500.

B2: MBP-fused Apc1-loop^500 T532A phosphorylated by Cdk2/cyclin A (domain or fragment, Xenopus tropicalis, UniProt Q08D52 515-584, looked up)
chain: GLAAPSLGMSNPMPRPSAPLESISTPAKPLNKHLAPMDEAGMLSPVPELRDSTRLHESTYLDDCTFHQFG
modifications: also: MBP fusion, phosphorylated in vitro by Cdk2/cyclin A, sites not given here
notes: Apc1, Xenopus tropicalis, loop^500, residues 515-584; source: recombinant, purified, then phosphorylated in vitro with purified Cdk2/cyclin A; not shown: MBP, N-terminal, kept
Take B2: in assay [2], the binding result is reported as “binds”.
With B3, the binding result in assay [3] is listed as “binds”.

B4: MBP-fused Apc1-loop^500 E562A (domain or fragment, Xenopus tropicalis, UniProt Q08D52 515-584, looked up)
chain: GLAAPSLGMSNPMPRPSTPLESISTPAKPLNKHLAPMDEAGMLSPVPALRDSTRLHESTYLDDCTFHQFG
notes: Apc1, Xenopus tropicalis, loop^500, residues 515-584; source: recombinant, purified as described previously (Fujimitsu & Yamano, 2020); not shown: MBP, N-terminal, kept
For the molecule B4, the binding result in assay [4] is “binds”.

B5: MBP-fused Apc1-loop^500 WT phosphorylated by Cdk2/cyclin A (domain or fragment, Xenopus tropicalis, UniProt Q08D52 515-584, looked up)
chain: GLAAPSLGMSNPMPRPSTPLESIS[pT]PAKPLNKHLAPMDEAGML[pS]PVPELRDSTRLHESTYLDDCTFHQFG
modifications: not fully specified (residue 18, N-terminus); also: MBP fusion, pT532 only in upper of two bands (partial), phosphorylated in vitro by Cdk2/cyclin A
notes: Apc1, Xenopus tropicalis, loop^500, residues 515-584; After phosphorylation the protein runs as two bands; only the upper one carries pT532; also called Apc1-loop^500 (CDK^+); phosphorylated MBP-Apc1-loop^500; source: recombinant, purified, then phosphorylated in vitro with purified Cdk2/cyclin A at 30°C for 2 h; not shown: MBP, N-terminal, kept
With B5, the binding result in assay [2] is listed as “binds”.
